The assay concerns the target T1, APP770-YFP (human, UniProt P05067-1 18-770).
T1 construct: human amyloid precursor protein, the isoform named APP770; Plasmid was a gift (Prof. Goldstein, UCSD); the construct is not described further; also called APP-YFP; source: HEK293, transfected (APP770-YFP pcDNA3.1), in lysate or in living cells
Nature of the assay: FRET or BRET; FRET acceptor bleaching in co-transfected HEK293 cells (YFP and CFP fusions); FRET efficiency from photobleached regions of interest; the negative control's value used as cut-off. The following applies: partners not purified. Background: BRET reads energy transfer from a luciferase to a nearby fluorophore.

T1 sequence (P05067 18-770): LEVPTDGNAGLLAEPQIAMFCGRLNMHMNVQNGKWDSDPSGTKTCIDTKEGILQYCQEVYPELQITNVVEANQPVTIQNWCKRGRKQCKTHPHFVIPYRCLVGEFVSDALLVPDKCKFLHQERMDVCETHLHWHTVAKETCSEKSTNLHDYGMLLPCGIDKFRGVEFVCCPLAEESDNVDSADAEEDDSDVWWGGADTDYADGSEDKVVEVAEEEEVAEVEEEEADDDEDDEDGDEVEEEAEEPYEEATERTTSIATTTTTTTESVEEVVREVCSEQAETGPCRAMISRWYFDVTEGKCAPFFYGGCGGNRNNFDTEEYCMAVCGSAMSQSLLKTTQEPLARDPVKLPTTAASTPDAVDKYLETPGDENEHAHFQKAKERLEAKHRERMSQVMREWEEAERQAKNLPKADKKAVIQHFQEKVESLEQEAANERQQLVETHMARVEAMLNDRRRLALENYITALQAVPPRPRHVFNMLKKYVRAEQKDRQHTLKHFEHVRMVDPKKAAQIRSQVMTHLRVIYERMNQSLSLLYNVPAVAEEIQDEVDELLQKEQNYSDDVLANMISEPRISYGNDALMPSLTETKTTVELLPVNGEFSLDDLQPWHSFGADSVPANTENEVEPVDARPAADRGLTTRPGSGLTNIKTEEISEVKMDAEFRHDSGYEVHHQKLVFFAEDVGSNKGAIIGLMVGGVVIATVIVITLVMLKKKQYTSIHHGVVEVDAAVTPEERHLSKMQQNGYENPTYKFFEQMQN

B1: Sort 756-831-CFP (domain or fragment, human, UniProt Q99523-1 756-831, looked up)
chain: SVPIILAIVGLMLVTVVAGVLIVKKYVCGGRFLVHRYSVLQQHAEANGVDGVDALDTASHTNKSGYHDDSDEDLLE
notes: The forward primer adds a start ATG before the stretch; source: HEK293, transfected, in lysate or in living cells; not shown: CFP (vector pECFP-N1), C-terminal, kept
Molecule B1 showed an FRET efficiency of 40%.

(Values after paper PMC3660575, “The Intracellular Domain of Sortilin Interacts with Amyloid Precursor Protein and Regulates Its Lysosomal and Lipid Raft Trafficking” (PLoS ONE, 2013).)
